The text below walks through data of patent US20160075780A1 (NB HEALTH LABORATORY, published 2016).

In test [1] the target is human EP4 with V5 and 6xHIS tags at the C-terminus, on the CHO cell line stably expressing human EP4 (human, UniProt P35408 1-488). The test is described as follows: cell-based or functional assay.
In test [2] the target is T1, mouse EP1 with Cycle 3 GFP at the C-terminus, on 293FT cells (mouse, UniProt P35375 1-405).
T1 construct: whole, on cells; also called mEP1; pcDNA-DEST47-mEP1; not shown: Cycle 3 GFP from the pcDNA-DEST47 vector
T1 sequence (looked up): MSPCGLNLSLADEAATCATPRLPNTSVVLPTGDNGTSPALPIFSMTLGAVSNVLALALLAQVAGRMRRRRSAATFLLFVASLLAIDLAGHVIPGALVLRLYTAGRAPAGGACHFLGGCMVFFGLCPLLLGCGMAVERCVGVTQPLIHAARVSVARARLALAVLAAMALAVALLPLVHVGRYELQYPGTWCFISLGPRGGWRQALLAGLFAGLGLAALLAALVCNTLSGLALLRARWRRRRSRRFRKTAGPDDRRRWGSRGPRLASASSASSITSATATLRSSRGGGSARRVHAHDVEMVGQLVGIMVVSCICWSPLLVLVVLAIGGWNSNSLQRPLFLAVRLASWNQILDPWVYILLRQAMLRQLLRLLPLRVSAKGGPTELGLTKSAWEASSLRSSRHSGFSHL
The experiment in a line: flow cytometry on 293FT cells transiently expressing EP-GFP. As to the method: (§1) The pcDNA-DEST47-hEP1, pcDNA-DEST47-hEP2, pcDNA-DEST47-hEP3, pcDNA-DEST47-hEP4, pcDNA-DEST47-mEP1, pcDNA-DEST47-mEP2, pcDNA-DEST47-mEP3, and pcDNA-DEST47-mEP4 produced in (11) above (10 μg each) were each introduced into 293FT cells, using Lipofectamin 2000. On the following day, the cells were washed with HBSS, and were then removed from the cell culture dish using an enzyme-free cell dissociation buffer. The cells were then recovered by centrifugation. The thus recovered cells are referred to as 293FT cells transiently expressing EP.
(§2) The binding test of the anti-EP4 antibody of the present invention and the 293FT transiently expressing EP cells was carried out with a flow cytometer according to the method described in (6) above. 293FT cells (5×10⁵ cells) that transiently expressed each of 8 types of PGE₂ receptor subtypes were used. As a primary antibody, 1 μg of the anti-EP4 antibody NBG016-mAb14 or NBG016-mAb21, or a mouse isotype control antibody (manufactured by BioRegend) was used. As a secondary antibody, a PE-labeled anti-mouse IgG antibody was used.

The target in test [3] is T2, mouse EP2 with Cycle 3 GFP at the C-terminus, on 293FT cells (mouse, UniProt Q62053 1-362).
T2 construct: whole, on cells; also called mEP2; pcDNA-DEST47-mEP2; not shown: Cycle 3 GFP from the pcDNA-DEST47 vector
The test is described as above. As to the method: as §1, §2

Test [4] deals with T3, mouse EP3 with Cycle 3 GFP at the C-terminus, on 293FT cells (mouse, UniProt P30557 1-365).
T3 construct: whole, on cells; also called mEP3; pcDNA-DEST47-mEP3; not shown: Cycle 3 GFP from the pcDNA-DEST47 vector
T3 sequence (looked up): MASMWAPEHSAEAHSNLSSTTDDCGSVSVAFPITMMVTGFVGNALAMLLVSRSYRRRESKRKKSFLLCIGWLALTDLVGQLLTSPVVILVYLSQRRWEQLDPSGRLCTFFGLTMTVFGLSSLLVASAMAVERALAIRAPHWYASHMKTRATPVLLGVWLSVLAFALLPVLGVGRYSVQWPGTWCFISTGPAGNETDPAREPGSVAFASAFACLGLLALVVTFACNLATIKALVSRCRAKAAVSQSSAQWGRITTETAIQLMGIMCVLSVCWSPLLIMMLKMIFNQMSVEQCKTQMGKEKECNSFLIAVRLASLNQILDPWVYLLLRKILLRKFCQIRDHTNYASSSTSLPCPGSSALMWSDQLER
The test is described as above. The method, then: as §1, §2

In test [5] the target is T4, mouse EP4 with Cycle 3 GFP at the C-terminus, on 293FT cells (mouse, UniProt P32240 1-513).
T4 construct: whole, on cells; also called mEP4; pcDNA-DEST47-mEP4; not shown: Cycle 3 GFP from the pcDNA-DEST47 vector
The description is as above. As to the method:
as §1, §2

Test [6] has as its target T5, human EP1 with Cycle 3 GFP at the C-terminus, on 293FT cells (human, UniProt P34995 1-402).
T5 construct: whole, on cells; also called hEP1; pcDNA-DEST47-hEP1; not shown: Cycle 3 GFP from the pcDNA-DEST47 vector
T5 sequence (looked up): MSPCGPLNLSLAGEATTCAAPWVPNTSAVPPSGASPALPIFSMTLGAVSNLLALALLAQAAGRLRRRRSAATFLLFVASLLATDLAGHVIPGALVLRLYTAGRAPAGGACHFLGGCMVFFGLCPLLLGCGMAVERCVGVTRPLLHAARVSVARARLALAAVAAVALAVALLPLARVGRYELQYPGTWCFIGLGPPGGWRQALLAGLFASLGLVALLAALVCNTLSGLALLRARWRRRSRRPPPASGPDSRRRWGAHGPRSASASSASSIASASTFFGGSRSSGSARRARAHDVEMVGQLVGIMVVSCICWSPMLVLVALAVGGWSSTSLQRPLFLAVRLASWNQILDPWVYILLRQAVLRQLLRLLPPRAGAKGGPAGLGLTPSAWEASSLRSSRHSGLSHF
The description is as above. As to the method:
as §1, §2

The target of test [7] is T6, human EP2 with Cycle 3 GFP at the C-terminus, on 293FT cells (human, UniProt P43116 1-358).
T6 construct: whole, on cells; also called hEP2; pcDNA-DEST47-hEP2; not shown: Cycle 3 GFP from the pcDNA-DEST47 vector
The description is as above. As to the method: as §1, §2

Several values for one entry are separate records, joined by “and”; a condition that tells them apart may be missing. Equal entries are not always repeated.

Sequence of human EP4 with V5 and 6xHIS tags at the C-terminus, on the CHO cell line stably expressing human EP4 (P35408 whole entry): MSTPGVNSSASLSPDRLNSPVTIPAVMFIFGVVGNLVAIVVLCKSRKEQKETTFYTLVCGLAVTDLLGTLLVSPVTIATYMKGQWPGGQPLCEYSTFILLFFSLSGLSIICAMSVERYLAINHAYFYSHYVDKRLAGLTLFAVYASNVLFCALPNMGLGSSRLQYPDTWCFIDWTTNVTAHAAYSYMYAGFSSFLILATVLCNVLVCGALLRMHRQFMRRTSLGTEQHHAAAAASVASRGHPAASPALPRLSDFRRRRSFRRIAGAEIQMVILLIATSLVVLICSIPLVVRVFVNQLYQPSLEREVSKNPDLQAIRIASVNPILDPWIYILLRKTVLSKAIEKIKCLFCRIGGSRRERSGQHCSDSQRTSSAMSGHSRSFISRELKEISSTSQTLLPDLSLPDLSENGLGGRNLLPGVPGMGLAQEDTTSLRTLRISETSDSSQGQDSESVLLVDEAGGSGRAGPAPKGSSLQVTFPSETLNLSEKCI
T6 sequence (P43116 whole entry): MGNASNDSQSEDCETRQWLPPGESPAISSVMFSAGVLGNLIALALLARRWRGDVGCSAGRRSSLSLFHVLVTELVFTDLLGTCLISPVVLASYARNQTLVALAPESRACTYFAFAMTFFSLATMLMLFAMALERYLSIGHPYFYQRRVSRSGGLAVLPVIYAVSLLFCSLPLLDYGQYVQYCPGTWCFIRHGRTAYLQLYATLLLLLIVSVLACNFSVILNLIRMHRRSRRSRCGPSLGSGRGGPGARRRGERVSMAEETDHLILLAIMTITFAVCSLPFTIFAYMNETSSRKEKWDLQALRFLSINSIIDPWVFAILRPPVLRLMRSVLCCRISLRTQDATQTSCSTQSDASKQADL
T4 sequence (P32240 whole entry): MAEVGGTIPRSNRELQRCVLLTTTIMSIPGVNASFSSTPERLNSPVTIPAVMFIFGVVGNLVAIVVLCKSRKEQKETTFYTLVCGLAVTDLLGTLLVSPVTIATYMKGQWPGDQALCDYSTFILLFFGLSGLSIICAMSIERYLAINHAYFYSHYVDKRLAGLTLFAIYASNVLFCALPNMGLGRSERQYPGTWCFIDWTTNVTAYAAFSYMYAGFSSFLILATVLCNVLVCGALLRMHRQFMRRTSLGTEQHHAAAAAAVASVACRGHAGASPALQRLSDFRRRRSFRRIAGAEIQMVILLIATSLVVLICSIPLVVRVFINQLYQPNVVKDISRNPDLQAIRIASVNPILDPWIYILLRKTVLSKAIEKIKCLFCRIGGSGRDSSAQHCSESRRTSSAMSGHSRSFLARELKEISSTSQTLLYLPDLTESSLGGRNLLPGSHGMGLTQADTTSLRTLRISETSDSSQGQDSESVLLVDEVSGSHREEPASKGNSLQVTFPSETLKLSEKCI
T2 sequence (Q62053 whole entry): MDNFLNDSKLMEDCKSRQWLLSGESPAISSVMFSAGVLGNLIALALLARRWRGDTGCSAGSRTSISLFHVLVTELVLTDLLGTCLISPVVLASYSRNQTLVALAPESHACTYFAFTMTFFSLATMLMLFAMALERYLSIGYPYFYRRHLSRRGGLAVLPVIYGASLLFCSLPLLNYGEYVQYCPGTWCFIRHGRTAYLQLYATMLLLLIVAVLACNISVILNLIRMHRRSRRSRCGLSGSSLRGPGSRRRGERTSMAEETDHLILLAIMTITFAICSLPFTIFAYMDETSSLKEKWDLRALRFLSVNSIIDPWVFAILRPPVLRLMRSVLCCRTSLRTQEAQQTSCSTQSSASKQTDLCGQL

B1: NBG016-mAb14 (antibody, V domains shown)
VH: EIQLQQSGPELVKPGASVKVSCKASGFPFSTYNIYWVIQSHGKRLEWIGYIDPYNGGTSYNQKFRGKATLTVDKSSSTAYMHLNRLTSEDSAVYYCARRWYTYDGDWFAYWGQGTLVTVSA
VL: DIKMTQSPSSMYVSLGERVTITCKASQDINRYLSWFQQKPGKSPKTLIYRANRLLDGVPSRFSGSGSGLDYSLTISSLEYEDMGNYYCLQYDEFPFTFGSGTKLEIKR
Turning to B1, in test [1], the “IC50 of inhibition of PGE2-induced cAMP production in the CHO cell line stably expressing human EP4 (5×10^-11 M PGE2)” value was 0.15 µg/mL and ~1 nM.

B2: NBG016-mAb21 (antibody, mouse IgG2a)
heavy: EIQLQQSGPELVKPGASVKVSCKASGFPFSTYNIYWVIQSHGKSLEWIGYIDPYNGGTSYNQKFRGKATLTVDKSSSTAYMHLNSLTSEDSAVYYCARRWYTYDGDWFAYWGQGTLVTVSAAKTTAPSVYPLAPVCGDTTGSSVTLGCLVKGYFPEPVTLTWNSGSLSSGVHTFPAVLQSDLYTLSSSVTVTSSTWPSQSITCNVAHPASSTKVDKKIEPRGPTIKPCPPCKCPAPNLLGGPSVFIFPPKIKDVLMISLSPIVTCVVVDVSEDDPDVQISWFVNNVEVHTAQTQTHREDYNSTLRVVSALPIQHQDWMSGKEFKCKVNNKDLPAPIERTISKPKGSVRAPQVYVLPPPEEEMTKKQVTLTCMVTDFMPEDIYVEWTNNGKTELNYKNTEPVLDSDGSYFMYSKLRVEKKNWVERNSYSCSVVHEGLHNHHTTKSFSHSPGK
light: DIKMTQSPSSMYVSLGERVTITCKASQDINRYLSWFQQKPGKSPKTLIYRANRMLDGVPSRFSGSGSGQDYSLTISSLEYEDMGNYYCLQYDEFPFTFGSGTKLEIKRADAAPTVSIFPPSSEQLTSGGASVVCFLNNFYPKDINVKWKIDGSERQNGVLNSWTDQDSKDSTYSMSSTLTLTKDEYERHNSYTCEATHKTSTSPIVKSFNRNEC
notes: Mouse IgG2a, kappa, purified from hybridoma supernatant; the recombinant antibody was expressed from the same genes; The entries may carry a signal peptide; also called recombinant antibody NBG016-mAb21; anti-EP4 antibody
B2: the binding result in test [2], in test [3], in test [4], in test [5], in test [6] and in test [7] was “no binding (tested: 1 µg per 5×10^5 cells)” throughout.

B3: NBG016-mAb9 (antibody, mouse IgG1, kappa, V domains shown)
VH: QVQLKESGPGLVAPSQSLSITCTVSGFSLSSYTIHWVRQPPGRGLEWLGVIWAGGSTNYNSALMSRLRISKDTSRSQVFLKVNSLQTDDSAIYYCARDDFGYGFAYWGQGTLVTVSA
VL: DVLMTQTPLSLPVSLGDQASISCRSSQSLVHTTGNTYLEWYLQKPGQSPKLLIYKISRRFSGVPDRFSGSGSGTDFTLRISRVEAADLGIYYCFQGSHIPPTFGAGTKLERKR
notes: Mouse IgG1, kappa, purified from hybridoma supernatant; the recombinant antibody (293FT supernatant) was expressed from the same genes; The entries may carry a signal peptide; also called recombinant antibody NBG016-mAb9
Consider B3, for which the “IC50 of inhibition of PGE2-induced cAMP production in the CHO cell line stably expressing human EP4 (1.5×10^-10 M PGE2)” value in test [1] is 4.6 µg/mL and ~28.8 nM. Further, the binding result in test [2], in test [3], in test [4], in test [5], in test [6] and in test [7] was “no binding” in each case.

B4: mouse IgG1 antibody NBG016-mAb21 (antibody)
heavy: EIQLQQSGPELVKPGASVKVSCKASGFPFSTYNIYWVIQSHGKSLEWIGYIDPYNGGTSYNQKFRGKATLTVDKSSSTAYMHLNSLTSEDSAVYYCARRWYTYDGDWFAYWGQGTLVTVSSAKTTPPSVYPLAPGSAAQTNSMVTLGCLVKGYFPEPVTVTWNSGSLSSGVHTFPAVLQSDLYTLSSSVTVPSSPRPSETVTCNVAHPASSTKVDKKIVPRDCGCKPCICTVPEVSSVFIFPPKPKDVLTITLTPKVTCVVVDISKDDPEVQFSWFVDDVEVHTAQTQPREEQFNSTFRSVSELPIMHQDWLNGKEFKCRVNSAAFPAPIEKTISKTKGRPKAPQVYTIPPPKEQMAKDKVSLTCMITDFFPEDITVEWQWNGQPAENYKNTQPIMNTNGSYFVYSKLNVQKSNWEAGNTFTCSVLHEGLHNHHTEKSLSHSPGK
light: B2 light
As to B4, the “IC50 of inhibition of PGE2-induced cAMP production in the CHO cell line stably expressing human EP4 (1.5×10^-10 M PGE2)” value in test [1] is 1.1 µg/mL and ~6.9 nM.
